# Experimental data: publication PMC8125230, “Crystal Structure of Escherichia coli Agmatinase: Catalytic Mechanism and Residues Relevant for Substrate Specificity” (International Journal of Molecular Sciences, 2021)
# B1: Agmatinase from Escherichia coli (enzyme)
# chain: MSTLGHQYDNSLVSNAFGFLRLPMNFQPYDSDADWVITGVPFDMATSGRAGGRHGPAAIRQVSTNLAWEHNRFPWNFDMRERLNVVDCGDLVYAFGDAREMSEKLQAHAEKLLAAGKRMLSFGGDHFVTLPLLRAHAKHFGKMALVHFDAHTDTYANGCEFDHGTMFYTAPKEGLIDPNHSVQIGIRTEFDKDNGFTVLDACQVNDRSVDDVIAQVKQIVGDMPVYLTFDIDCLDPAFAPGTGTPVIGGLTSDRAIKLVRGLKDLNIVGMDVVEVAPAYDQSEITALAAATLALEMLYIQAAKKGE
# notes: Agmatinase (EcAGM), Escherichia coli; wild type; gene cloned into pQE60; residues 11 to 26 of the N-terminal end are modeled in the structure; The hexamer (dimer of trimers) is built by crystal symmetry: 7LOL has one chain and 7LOX three chains in the asymmetric unit; also called EcAGM; E. coli AGM; source: E. coli BL21(DE3), purified (HisTrap HP, S-200 size exclusion)
# Biological target: the molecule itself
# Test: crystal structure; sitting drop vapor diffusion at 18 °C; protein 12 mg/mL in 25 mM Tris-HCl pH 8.0, 2 mM MnCl2, 100 mM guanidine chloride; two crystal forms (7LOL at 1.8 Å, 7LOX at 3.2 Å); oligomeric state analysed with PISA
protein,measurement,value
B1,stoichiometry N,6
